# Literature values in article PMC7149769.
# Columns and labels:
# [1] = target: Factor Xa (Homo sapiens) (UniProt P00742)
# [2] = target: Factor X (Homo sapiens) (UniProt P00742)
Kd [1] [µM],Kd [2] [µM],Substance
0.001,,Factor Va (from UniProt P12259)
,0.03,Mac-1 (from UniProt P11215)
